Tests used:
γ-secretase = details: Chávez-Gutiérrez et al., 2012; Funamoto et al., 2013; read-out: Km (substrate affinity constant); cited from earlier work
[1] = test system: CC[C@H](C)[C@H](NC(=O)[C@H](C)NC(=O)CNC(=O)[C@H](CCCCN)NC(=O)[C@H](CC(N)=O)NC(=O)[C@H](CO)NC(=O)CNC(=O)[C@@H](NC(=O)[C@H](CC(=O)O)NC(=O)[C@H](CCC(=O)O)NC(=O)[C@H](C)NC(=O)[C@H](Cc1ccccc1)NC(=O)[C@H](Cc1ccccc1)NC(=O)[C@@H](NC(=O)[C@H](CC(C)C)NC(=O)[C@H](CCCCN)NC(=O)[C@H](CCC(N)=O)NC(=O)[C@H](Cc1c[nH]cn1)NC(=O)[C@H](Cc1c[nH]cn1)NC(=O)[C@@H](NC(=O)[C@H](CCC(=O)O)NC(=O)[C@H](Cc1ccc(O)cc1)NC(=O)CNC(=O)[C@H](CO)NC(=O)[C@H](CC(=O)O)NC(=O)[C@H](Cc1c[nH]cn1)NC(=O)[C@H](CCCNC(=N)N)NC(=O)[C@H](Cc1ccccc1)NC(=O)[C@H](CCC(=O)O)NC(=O)[C@H](C)NC(=O)[C@@H](N)CC(=O)O)C(C)C)C(C)C)C(C)C)C(=O)N[C@H](C(=O)NCC(=O)N[C@@H](CC(C)C)C(=O)N[C@@H](CCSC)C(=O)N[C@H](C(=O)NCC(=O)NCC(=O)N[C@H](C(=O)N[C@H](C(=O)N[C@H](C(=O)N[C@@H](C)C(=O)N[C@H](C(=O)N[C@H](C(=O)N[C@H](C(=O)N[C@H](C(=O)O)C(C)C)[C@@H](C)CC)C(C)C)[C@@H](C)O)[C@@H](C)CC)C(C)C)C(C)C)C(C)C)[C@@H](C)CC; assay: purified protein, by the assay type
[2] = test system: CC[C@H](C)[C@H](NC(=O)[C@@H](NC(=O)[C@@H](NC(=O)[C@H](C)NC(=O)[C@@H](NC(=O)[C@@H](NC(=O)[C@@H](NC(=O)CNC(=O)CNC(=O)[C@@H](NC(=O)[C@H](CCSC)NC(=O)[C@H](CC(C)C)NC(=O)CNC(=O)[C@@H](NC(=O)[C@@H](NC(=O)[C@H](C)NC(=O)CNC(=O)[C@H](CCCCN)NC(=O)[C@H](CC(N)=O)NC(=O)[C@H](CO)NC(=O)CNC(=O)[C@@H](NC(=O)[C@H](CC(=O)O)NC(=O)[C@H](CCC(=O)O)NC(=O)[C@H](C)NC(=O)[C@H](Cc1ccccc1)NC(=O)[C@H](Cc1ccccc1)NC(=O)[C@@H](NC(=O)[C@H](CC(C)C)NC(=O)[C@H](CCCCN)NC(=O)[C@H](CCC(N)=O)NC(=O)[C@H](Cc1c[nH]cn1)NC(=O)[C@H](Cc1c[nH]cn1)NC(=O)[C@@H](NC(=O)[C@H](CCC(=O)O)NC(=O)[C@H](Cc1ccc(O)cc1)NC(=O)CNC(=O)[C@H](CO)NC(=O)[C@H](CC(=O)O)NC(=O)[C@H](Cc1c[nH]cn1)NC(=O)[C@H](CCCNC(=N)N)NC(=O)[C@H](Cc1ccccc1)NC(=O)[C@H](CCC(=O)O)NC(=O)[C@H](C)NC(=O)[C@@H](N)CC(=O)O)C(C)C)C(C)C)C(C)C)[C@@H](C)CC)[C@@H](C)CC)C(C)C)C(C)C)C(C)C)[C@@H](C)CC)[C@@H](C)O)C(C)C)C(=O)O; assay: purified protein, by the assay type

Substance	Km (γ-secretase)	Km ([1]; other: 37° C., 37.0 °C)	Vmax ([1]; other: 37° C., 37.0 °C)	Km ([1]; other: 51° C., […])	Vmax ([1]; other: 51° C., […])	Km ([1]; other: summary of Table 2)	Km ([2]; other: 37° C., 37.0 °C)	Vmax ([2]; other: 37° C., 37.0 °C)	Km ([2]; other: 45° C., […])	Vmax ([2]; other: 45° C., […])	Km ([2]; other: 51° C., […])	Vmax ([2]; other: 51° C., […])	Km ([2]; other: summary of Table 2)
APP-C99: human Amyloid beta precursor protein C99 fragment (99 aa), natural γ-secretase substrate	400 to 800 nM												
wild type human γ-secretase (PSEN1/APH1a) (Homo sapiens)		3.3 µM	606.3 nM/h	2.3 µM	348.8 nM/h	3 µM	2.9 µM	545.2 nM/h	1.7 µM	274.3 nM/h	1.4 µM	97.45 nM/h	3 µM
